# From publication PMC5137453 (Nucleic Acids Research, 2016)
# Numbering of substitutions follows the chain as printed. Numbers in names are those of the source.
# T1: CPS-6 H148A/K131D/F132N (Caenorhabditis elegans, UniProt Q95NM6 63-305, H148A;K131D;F132N)
# T1 sequence: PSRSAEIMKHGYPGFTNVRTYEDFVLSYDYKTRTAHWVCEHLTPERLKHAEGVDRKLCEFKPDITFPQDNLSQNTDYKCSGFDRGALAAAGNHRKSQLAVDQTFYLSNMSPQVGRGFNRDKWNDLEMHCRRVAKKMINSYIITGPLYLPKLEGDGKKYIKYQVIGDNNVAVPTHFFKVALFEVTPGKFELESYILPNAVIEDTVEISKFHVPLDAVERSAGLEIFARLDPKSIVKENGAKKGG
# T2: CPS-6 H148A/P207E (Caenorhabditis elegans, UniProt Q95NM6 63-305, H148A;P207E)
# T2 sequence: T1 sequence with D69K, N70F, P145E
# T3: CPS-6 H148A (Caenorhabditis elegans, UniProt Q95NM6 63-305, H148A)
# T3 sequence: T1 sequence with D69K, N70F
# T4: CPS-6 H148A/F122A (Caenorhabditis elegans, UniProt Q95NM6 63-305, H148A;F122A)
# T4 sequence: T1 sequence with F60A, D69K, N70F
# B1: CPS-6 H148A (enzyme)
# chain: T1 sequence with D69K, N70F
# B2: CPS-6 H148A/F122A (enzyme)
# chain: T1 sequence with F60A, D69K, N70F
# What was measured:
# SEC = target: the molecule itself; test: SEC
# CPS-6 H148A/K131D/F132N = target: T1, CPS-6 H148A/K131D/F132N; test: filter binding
# CPS-6 H148A/P207E = target: T2, CPS-6 H148A/P207E; test: filter binding
# CPS-6 H148A = target: T3, CPS-6 H148A; test: filter binding
# CPS-6 H148A/F122A = target: T4, CPS-6 H148A/F122A; test: X-ray crystallography
binder,measurement,setting,value
B1,stoichiometry N,SEC,2
B2,stoichiometry N,SEC,2
ACGCTGCCGAATTCTGGCGTTAGGAGATACCGATAAGCTTCGGCTTAA (ssDNA) [48-nt ssDNA],Kd,CPS-6 H148A/K131D/F132N,659 nM
same,Kd,CPS-6 H148A/P207E,804 nM
same,Kd,CPS-6 H148A,159 nM
TTTTTTGT (ssDNA) [8-nt ssDNA (5'-TTTTTTGT-3')],binding result,CPS-6 H148A/F122A,binds
